We go through one molecule from patent publication US20140018304A1 (INDUSTRY ACADEMIC COOPERATION FOUNDATION YONSEI UNIVERSITY, published 2014).

Experiment [1] has as its target T1, Bacterial Alkaline Phasphatase (BAP) (UniProt P00634 22-471 = phosphatase).
T1 construct: Control
Kind of experiment: co-expression in HeLa cells, precipitation with Ni-NTA resin, western blot.
Procedure: Appropriate plasmid combination was transfected into HeLa cells using Lipofectamine Plus (Invitrogen). At 48 hours post-transfection, transfected cells were dissolved in the cell lysis buffer (10 mM Tris, pH 7.5, mM NaCl, 2 mM EDTA, 0.5% Triton X-100, 1 mM PMSF, and protease inhibitor cocktail (Roche Diagnostics, Mannheim, Germany)) to obtain total proteins. For secretary protein preparation, the culture medium was exchanged with a serum-free culture medium at 24 hours post transfection of the plasmid, followed by culturing again for 24 hours, and then the culture medium was collected. The collected culture medium was centrifuged to discard cell components. For immunoprecipitation of His-tagged proteins, 300 μg of total proteins and the culture medium were reacted with the Ni-NTA resin at 4 for 5 hours. After 5 hours, the reacted material was washed five times with a washing buffer (50 mM Tris, pH 7.5, 150 mM NaCl, and 0.5% Triton X-100), and then proteins attached to the resin were dissolved in the SDS sample buffer, followed by SDS-PAGE and then western blotting.

Experiment [2] has as its target T2, GLRX3C, GLRX3 mutant composed of only the C-terminal domains, expressed from 3xFLAG-CMV14/H14C (Homo sapiens, UniProt O76003 134-335).
T2 construct: Deletion construct; not shown: C-terminal 3xFLAG tag of the 3xFLAG-CMV14 vector and the BamHI-site linker to it
T2 sequence: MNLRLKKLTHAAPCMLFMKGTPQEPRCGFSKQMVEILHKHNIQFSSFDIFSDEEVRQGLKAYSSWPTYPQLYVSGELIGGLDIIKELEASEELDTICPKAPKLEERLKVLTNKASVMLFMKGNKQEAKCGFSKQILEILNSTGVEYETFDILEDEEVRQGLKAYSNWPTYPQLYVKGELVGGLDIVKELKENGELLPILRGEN
The experiment is described as above.

T1 sequence (P00634 22-471): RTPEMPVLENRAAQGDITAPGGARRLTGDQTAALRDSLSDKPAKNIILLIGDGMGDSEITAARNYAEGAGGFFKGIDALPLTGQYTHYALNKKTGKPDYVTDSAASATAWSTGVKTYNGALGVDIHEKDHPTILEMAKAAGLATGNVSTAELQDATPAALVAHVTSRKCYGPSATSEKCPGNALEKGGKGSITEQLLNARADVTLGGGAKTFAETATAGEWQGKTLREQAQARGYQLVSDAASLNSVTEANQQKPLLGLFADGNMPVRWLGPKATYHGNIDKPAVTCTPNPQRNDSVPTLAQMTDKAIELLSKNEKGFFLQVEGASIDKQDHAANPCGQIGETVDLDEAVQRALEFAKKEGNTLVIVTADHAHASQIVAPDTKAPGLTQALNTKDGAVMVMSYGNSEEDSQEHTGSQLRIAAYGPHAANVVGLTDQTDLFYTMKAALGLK

B1: PAUF-Myc/His from pcDNA3.1(+)-PAUF-Myc/His (other, UniProt Q96DA0 17-172, looked up)
chain: GKMYGPGGGKYFSTTEDYDHEITGLRVSVGLLLVKSVQVKLGDSWDVKLGALGGNTQEVTLQPGEYITKVFVAFQAFLRGMVMYTSKDRYFYFGKLDGQISSAYPSQEGQVLVGIYGQYQLLGIKSIGFEWNYPLEEPTTEPPVNLTYSANSPVGR
notes: In vivo experiment: expressed in HeLa cells, total proteins and culture medium reacted with Ni-NTA resin; also called PAUF-His; His-PAUF; not shown: Myc/His tag of the pcDNA3.1(+)-Myc/His vector (Invitrogen)
Take B1: the binding result in experiment [1] and in experiment [2] was “no binding” in each case.
